Earlier results, collected in paper PMC3760879.

Biological target: Asp97 (UniProt position 97, VFRYIDWLLTV)
Conditions: dark/ground state implied (protonation of the acceptor group at neutral pH); not explicitly stated

Proteorhodopsin (PR) (uncultured marine gamma-proteobacterium (the article says only 'γ-proteobacteria'))
pKa: around 7.2
